Assay results from patent US20220144921A1 (US Dept. of Health and Human Services, published 2022).

Legend:
[1] = target: T1, native NS1 in culture supernatant of DENV1-infected Vero cells (Dengue virus serotype 1, UniProt P17763 776-1127); experiment: iELISA on Vero cell culture supernatant
T1 construct: domain: NS1
T1 sequence: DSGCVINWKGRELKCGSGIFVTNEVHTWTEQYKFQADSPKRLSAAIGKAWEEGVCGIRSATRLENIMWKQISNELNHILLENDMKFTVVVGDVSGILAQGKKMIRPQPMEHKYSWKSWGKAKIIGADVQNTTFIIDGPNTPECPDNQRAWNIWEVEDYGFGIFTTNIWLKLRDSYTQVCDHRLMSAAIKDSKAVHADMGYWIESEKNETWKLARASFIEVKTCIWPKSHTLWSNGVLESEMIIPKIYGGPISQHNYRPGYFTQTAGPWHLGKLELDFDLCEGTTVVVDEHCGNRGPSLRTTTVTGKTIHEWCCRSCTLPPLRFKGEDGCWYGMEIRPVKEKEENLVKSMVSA

[2] = target: T2, native NS1 in culture supernatant of DENV2-infected Vero cells (Dengue virus serotype 2, UniProt P29990 776-1127); experiment: iELISA on Vero cell culture supernatant
T2 construct: domain: NS1
T2 sequence: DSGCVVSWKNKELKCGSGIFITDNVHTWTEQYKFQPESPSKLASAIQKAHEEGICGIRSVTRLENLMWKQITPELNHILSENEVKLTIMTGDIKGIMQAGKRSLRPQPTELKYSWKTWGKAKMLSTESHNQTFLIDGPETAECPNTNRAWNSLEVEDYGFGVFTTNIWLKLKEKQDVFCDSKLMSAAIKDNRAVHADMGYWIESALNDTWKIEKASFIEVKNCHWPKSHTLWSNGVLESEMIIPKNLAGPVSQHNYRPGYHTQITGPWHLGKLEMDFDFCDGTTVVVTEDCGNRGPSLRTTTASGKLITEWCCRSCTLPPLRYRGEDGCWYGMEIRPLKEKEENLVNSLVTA

[3] = target: T3, native NS1 in culture supernatant of DENV3-infected Vero cells (Dengue virus serotype 3, UniProt Q6YMS4 774-1125); experiment: iELISA on Vero cell culture supernatant
T3 construct: domain: NS1
T3 sequence: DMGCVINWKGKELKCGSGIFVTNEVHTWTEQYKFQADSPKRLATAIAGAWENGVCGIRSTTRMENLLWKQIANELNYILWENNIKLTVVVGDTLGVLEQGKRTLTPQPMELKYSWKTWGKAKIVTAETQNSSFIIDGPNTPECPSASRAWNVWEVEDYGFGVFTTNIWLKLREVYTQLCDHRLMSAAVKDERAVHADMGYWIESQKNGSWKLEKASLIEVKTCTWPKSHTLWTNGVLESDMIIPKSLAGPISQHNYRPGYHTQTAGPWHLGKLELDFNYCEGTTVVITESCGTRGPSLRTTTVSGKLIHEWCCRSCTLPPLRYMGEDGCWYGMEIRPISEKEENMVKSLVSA

[4] = target: T4, recombinant non-structural protein 1 of DENV2 (Dengue virus serotype 2, UniProt P29990 776-1127); experiment: iELISA, FIG. 4 legend
T4 construct: domain: NS1; also called rNS1 DENV2
T4 sequence: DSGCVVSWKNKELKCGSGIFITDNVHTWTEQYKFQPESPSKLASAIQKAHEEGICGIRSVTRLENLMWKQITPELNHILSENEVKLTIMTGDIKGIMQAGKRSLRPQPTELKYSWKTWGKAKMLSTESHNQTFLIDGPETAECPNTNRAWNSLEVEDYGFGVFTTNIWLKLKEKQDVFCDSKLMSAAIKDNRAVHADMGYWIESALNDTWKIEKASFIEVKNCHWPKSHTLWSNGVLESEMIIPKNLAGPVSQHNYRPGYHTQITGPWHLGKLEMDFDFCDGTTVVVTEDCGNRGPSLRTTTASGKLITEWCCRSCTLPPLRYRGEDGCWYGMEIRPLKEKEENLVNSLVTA

[5] = target: T5, recombinant non-structural protein 1 of West Nile Virus (West Nile Virus, UniProt P06935 788-1139); experiment: iELISA, FIG. 4 legend
T5 construct: domain: NS1; also called rNS1 WNV
T5 sequence: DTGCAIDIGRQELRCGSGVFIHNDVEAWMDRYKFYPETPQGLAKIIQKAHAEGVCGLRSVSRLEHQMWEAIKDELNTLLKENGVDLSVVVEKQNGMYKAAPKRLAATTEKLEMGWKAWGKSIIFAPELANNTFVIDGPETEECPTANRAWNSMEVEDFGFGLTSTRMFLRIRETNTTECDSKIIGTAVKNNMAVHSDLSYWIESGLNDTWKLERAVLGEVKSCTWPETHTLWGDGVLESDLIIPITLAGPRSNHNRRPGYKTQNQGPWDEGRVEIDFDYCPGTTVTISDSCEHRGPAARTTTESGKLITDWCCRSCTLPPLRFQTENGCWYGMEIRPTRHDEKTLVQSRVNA

[6] = target: T6, recombinant non-structural protein 1 of Yellow Fever Virus (Yellow Fever Virus, UniProt P03314 779-1130); experiment: iELISA, FIG. 4 legend
T6 construct: domain: NS1; also called rNS1 YFV

[7] = target: T7, recombinant non-structural protein 1 of DENV3 (Dengue virus serotype 3, UniProt Q6YMS4 774-1125); experiment: iELISA, FIG. 4 legend
T7 construct: domain: NS1; also called rNS1 DENV3
T7 sequence: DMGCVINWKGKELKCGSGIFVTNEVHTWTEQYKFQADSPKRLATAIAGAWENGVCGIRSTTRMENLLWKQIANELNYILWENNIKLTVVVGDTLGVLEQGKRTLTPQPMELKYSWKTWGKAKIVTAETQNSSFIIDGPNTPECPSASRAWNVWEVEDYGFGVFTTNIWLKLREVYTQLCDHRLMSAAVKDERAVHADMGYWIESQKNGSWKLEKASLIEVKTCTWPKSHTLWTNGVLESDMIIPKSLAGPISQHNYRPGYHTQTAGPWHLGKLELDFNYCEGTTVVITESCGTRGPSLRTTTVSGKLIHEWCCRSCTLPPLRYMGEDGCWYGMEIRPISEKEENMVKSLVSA

[8] = target: T8, recombinant SUMO protein (small-ubiquitin-like modifier); experiment: iELISA, FIG. 4 legend
T8 construct: also called SUMO* tag

[9] = target: T9, recombinant non-structural protein 1 of DENV1 (Dengue virus serotype 1, UniProt P17763 776-1127); experiment: iELISA, FIG. 4 legend
T9 construct: domain: NS1; also called rNS DENV1; rNS1 DENV1
T9 sequence: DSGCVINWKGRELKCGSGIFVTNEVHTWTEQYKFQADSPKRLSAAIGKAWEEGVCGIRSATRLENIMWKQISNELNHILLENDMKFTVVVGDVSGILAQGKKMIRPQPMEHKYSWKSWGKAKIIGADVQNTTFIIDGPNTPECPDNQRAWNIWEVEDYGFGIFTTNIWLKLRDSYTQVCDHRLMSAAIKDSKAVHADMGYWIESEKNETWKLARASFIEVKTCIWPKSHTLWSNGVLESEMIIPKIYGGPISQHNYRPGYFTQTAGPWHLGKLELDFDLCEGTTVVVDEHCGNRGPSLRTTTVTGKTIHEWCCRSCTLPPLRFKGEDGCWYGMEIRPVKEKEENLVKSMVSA

[10] = target: T4, recombinant non-structural protein 1 of …; experiment: iELISA on recombinant protein
[11] = target: T5, recombinant non-structural protein 1 of …; experiment: iELISA on recombinant protein
[12] = target: T6, recombinant non-structural protein 1 of …; experiment: iELISA on recombinant protein
[13] = target: T7, recombinant non-structural protein 1 of …; experiment: iELISA on recombinant protein
[14] = target: T9, recombinant non-structural protein 1 of …; experiment: iELISA on recombinant protein
[15] = target: T10, native NS1 on the surface of DENV3-infected Vero cells (Dengue virus serotype 3, UniProt Q6YMS4 774-1125); experiment: cell-based ELISA on infected Vero cells
T10 construct: domain: NS1; also called DENV3 (Cell-Based ELISA)
T10 sequence: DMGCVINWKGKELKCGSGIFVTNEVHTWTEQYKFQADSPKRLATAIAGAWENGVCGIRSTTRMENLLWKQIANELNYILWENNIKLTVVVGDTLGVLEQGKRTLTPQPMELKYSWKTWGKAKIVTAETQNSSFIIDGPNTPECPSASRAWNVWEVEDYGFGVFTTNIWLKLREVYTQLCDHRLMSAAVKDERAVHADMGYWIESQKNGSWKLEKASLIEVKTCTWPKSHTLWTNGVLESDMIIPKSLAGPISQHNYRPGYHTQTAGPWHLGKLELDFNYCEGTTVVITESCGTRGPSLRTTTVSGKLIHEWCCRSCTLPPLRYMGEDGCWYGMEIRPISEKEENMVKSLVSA

[16] = target: T11, native NS1 on the surface of DENV1-infected Vero cells (Dengue virus serotype 1, UniProt P17763 776-1127); experiment: cell-based ELISA on infected Vero cells
T11 construct: domain: NS1; also called DENV1 (Cell-Based ELISA)
T11 sequence: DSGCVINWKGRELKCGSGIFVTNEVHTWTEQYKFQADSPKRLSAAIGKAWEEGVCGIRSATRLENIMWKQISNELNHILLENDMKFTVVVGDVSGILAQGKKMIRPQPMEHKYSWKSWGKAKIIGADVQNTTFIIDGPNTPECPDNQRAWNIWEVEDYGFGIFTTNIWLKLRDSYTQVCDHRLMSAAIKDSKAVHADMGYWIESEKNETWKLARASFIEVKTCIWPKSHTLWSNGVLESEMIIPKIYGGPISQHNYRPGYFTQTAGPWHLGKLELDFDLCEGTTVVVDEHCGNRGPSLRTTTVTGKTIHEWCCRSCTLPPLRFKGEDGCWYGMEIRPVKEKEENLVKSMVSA

[17] = target: T12, native NS1 on the surface of DENV2-infected Vero cells (Dengue virus serotype 2, UniProt P29990 776-1127); experiment: cell-based ELISA on infected Vero cells
T12 construct: domain: NS1; also called DENV2 (Cell-Based ELISA)
T12 sequence: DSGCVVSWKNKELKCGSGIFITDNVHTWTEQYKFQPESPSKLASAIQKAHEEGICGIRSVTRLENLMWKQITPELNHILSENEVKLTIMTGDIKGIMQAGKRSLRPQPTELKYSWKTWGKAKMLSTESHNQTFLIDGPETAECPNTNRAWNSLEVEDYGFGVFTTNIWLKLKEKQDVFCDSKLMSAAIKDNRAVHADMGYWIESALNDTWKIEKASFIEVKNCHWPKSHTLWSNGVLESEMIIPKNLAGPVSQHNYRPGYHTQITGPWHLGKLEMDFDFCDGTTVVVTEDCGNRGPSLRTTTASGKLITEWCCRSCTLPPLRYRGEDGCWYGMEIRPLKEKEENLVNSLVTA

B1: MAb 3H7A9 (antibody, V domains shown)
VH: EVQLQQSGAELVKPGASVKLSCTASGFNIKDTYMHWVKQRPEQGLEWIGRIDPANGNTQYGPKFQGKATITADTSSNTAYLQLSSLTSEDTAVYYCARGGIFYYYGSSYSYAMDYWGQGTSVTVSS
VL: DIQMTQTTSSLSASLGDRVTISCRASQDISNYLNWYQQKPDGTVTLLIYYTSRLHSGVPSRFSGSGSGTDYSLTISNLEQEDIATYFCQQGNTLPRTFGGGTKLEIK
- binding result [1]: no binding
- binding result [2]: no binding
- binding result [3]: no binding
- OD value (450 nm) [4]: < 0 OD
- OD value (450 nm) [5]: < 0 OD
- OD value (450 nm) [6]: < 0 OD
- OD value (450 nm) [7]: < 0 OD
- OD value (450 nm) [8]: < 0 OD
- OD value (450 nm) [9]: < 0 OD
- binding result [10]: no binding
- binding result [11]: no binding
- binding result [12]: no binding
- binding result [13]: no binding
- binding result [14]: no binding
- binding result [15]: no binding
- binding result [16]: no binding
- binding result [17]: no binding

B2: MAb 8A6F2 (antibody, V domains shown)
VH: DVQLQESGPDLVKPSQSLSLTCTVTGYSITSGYNWHWIRQFPGNKLEWMGYIHYSGGTNYNPSLKSRISITRDTSKNQFFLQLNSVTTEDTATYYCARRTGTVPFAYWGQGTLVTVSA
VL: EIVLTQSPALMAASPGEKVTITCSVSSSISSSNLHWYQQKSETSPKPWIYGTSNLASGVPVRFSGSGSGTSYSLTISSMEAEDAATYYCQQWSSYPLTFGGGTKLEIK
- binding result [1]: no binding
- binding result [2]: no binding
- binding result [3]: no binding
- OD value (450 nm) [4]: < 0 OD
- OD value (450 nm) [5]: < 0 OD
- OD value (450 nm) [6]: < 0 OD
- OD value (450 nm) [7]: < 0 OD
- OD value (450 nm) [8]: < 0 OD
- OD value (450 nm) [9]: < 0 OD
- binding result [10]: no binding
- binding result [11]: no binding
- binding result [12]: no binding
- binding result [13]: no binding
- binding result [14]: no binding
- binding result [15]: no binding
- binding result [16]: no binding
- binding result [17]: no binding

B3: MAb 6D4B10 (antibody, V domains shown)
VH: EVQLQQSGPELVKPGASVKMSCKASGYTFTSYVMHWVKQKPGQGLEWIGYLNPYNDDTKYNEKFKGKATLTSDKSSSTAYMELSSLTSEDSAVYYCAYGPPYALDYWGQGTSVTVSS
VL: QIVLTQSPAIMTASLGERVTMTCTASSSVSSSYLHWYQQKPGSSPKLWIYSTSNLASGVPARFSGSGSGTSYSLTISSMEAEDAATYYCHQYHRSPYTFGGGTKLEIK
- binding result [1]: no binding
- binding result [2]: no binding
- binding result [3]: no binding
- OD value (450 nm) [4]: < 0 OD
- OD value (450 nm) [5]: < 0 OD
- OD value (450 nm) [6]: < 0 OD
- OD value (450 nm) [7]: < 0 OD
- OD value (450 nm) [8]: < 0 OD
- OD value (450 nm) [9]: < 0 OD
- binding result [10]: no binding
- binding result [11]: no binding
- binding result [12]: no binding
- binding result [13]: no binding
- binding result [14]: no binding
- binding result [15]: no binding
- binding result [16]: no binding
- binding result [17]: no binding
